{"source": "paper PMC8514949", "target": "PI-3-kinase (human (endogenous in Caco2)) (UniProt P42338)", "sequence (P42338 whole entry)": "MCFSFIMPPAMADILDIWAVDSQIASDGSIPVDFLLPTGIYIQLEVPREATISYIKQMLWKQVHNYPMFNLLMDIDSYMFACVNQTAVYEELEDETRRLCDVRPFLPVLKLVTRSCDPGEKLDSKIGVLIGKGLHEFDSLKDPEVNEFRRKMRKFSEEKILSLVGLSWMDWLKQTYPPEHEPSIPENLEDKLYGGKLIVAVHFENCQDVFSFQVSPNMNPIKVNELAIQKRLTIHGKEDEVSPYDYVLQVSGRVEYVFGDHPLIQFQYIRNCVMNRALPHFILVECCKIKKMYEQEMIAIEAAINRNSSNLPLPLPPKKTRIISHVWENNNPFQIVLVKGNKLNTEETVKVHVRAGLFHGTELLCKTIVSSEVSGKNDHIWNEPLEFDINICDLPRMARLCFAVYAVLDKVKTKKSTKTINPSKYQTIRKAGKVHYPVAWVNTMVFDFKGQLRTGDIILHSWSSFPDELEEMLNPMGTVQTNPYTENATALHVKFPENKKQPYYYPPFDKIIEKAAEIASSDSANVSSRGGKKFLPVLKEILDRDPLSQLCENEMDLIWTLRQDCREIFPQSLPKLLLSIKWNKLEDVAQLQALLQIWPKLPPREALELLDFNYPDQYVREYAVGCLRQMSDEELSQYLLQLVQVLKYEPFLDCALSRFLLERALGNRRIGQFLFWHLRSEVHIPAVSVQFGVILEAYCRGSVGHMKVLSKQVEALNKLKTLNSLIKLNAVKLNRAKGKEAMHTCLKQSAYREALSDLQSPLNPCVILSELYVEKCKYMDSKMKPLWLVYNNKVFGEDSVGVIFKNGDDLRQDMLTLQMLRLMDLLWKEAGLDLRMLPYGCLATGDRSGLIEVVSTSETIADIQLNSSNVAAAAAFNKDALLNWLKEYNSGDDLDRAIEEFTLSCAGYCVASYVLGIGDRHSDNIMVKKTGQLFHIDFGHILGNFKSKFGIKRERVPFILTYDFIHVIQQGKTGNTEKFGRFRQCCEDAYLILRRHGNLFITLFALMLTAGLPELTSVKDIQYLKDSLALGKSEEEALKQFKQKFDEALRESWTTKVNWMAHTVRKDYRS", "test": "co-IP; as the basal co-IP, but Caco2 Dsg2^WT cells incubated for 24h with TNFα (100 ng/ml) before lysis; Dsg2/PI-3-kinase ratio of optical densities, fold of controls, n=4", "data": [{"substance": "Desmoglein 2 (from UniProt Q14126 50-1118) (natural protein)", "values": [{"measurement": "fold of controls (Dsg2/PI-3-kinase ratio in the co-IP, after TNFα) (fold of controls)", "result": 0.34}]}]}
